Results on 1 molecule are retold here after publication PMC4605301, “hSSB1 (NABP2/ OBFC2B) is required for the repair of 8-oxo-guanine by the hOGG1-mediated base excision repair pathway”.

For this series, the target named is hSSB1 (NABP2/OBFC2B) (Homo sapiens, UniProt Q9BQ15 1-211). Description: EMSA; 0-2 uM hSSB1; 90 fmol DNA in 10 ul; 8-oxoG opposite C (pairing base inferred); EMSA: 50 mM Tris-HCl pH 7.5, 100 mM KCl, 100 ug/ml BSA, 15 min at 37 C; 8% polyacrylamide gel. The conditions noted are these: protein: recombinant; tags: N-terminal His6; label: 5' FAM; blunt. A general note: In EMSA bound probe runs differently from free probe, usually more slowly.
hSSB1 (NABP2/OBFC2B), sequence (Q9BQ15 whole entry): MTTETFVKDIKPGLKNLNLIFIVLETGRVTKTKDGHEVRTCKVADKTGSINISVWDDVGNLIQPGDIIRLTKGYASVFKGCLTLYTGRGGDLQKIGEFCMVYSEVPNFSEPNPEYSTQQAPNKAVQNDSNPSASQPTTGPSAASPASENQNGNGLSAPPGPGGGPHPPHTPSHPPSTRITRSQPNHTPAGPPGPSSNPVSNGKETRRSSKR

B1: 8-oxoG:C dsDNA (dsDNA)
DNA 1: CTCTCCCTTCGCTCCTTTCCTCT
DNA 2: AGAGGAAAGGAGCGAAGGGAGAG
modifications: 8-oxoguanine at position 11 of strand 1 (written G)
As to B1, the binding result is reported as “binds”.
